Data reported in the supplement of paper PMC5998384.

What was measured:
HeLa Kyoto [1] = assay: solubility in G1/S (NP-40 vs SDS abundance) (log2 ratio); higher = more soluble; details: cell cycle stage: G1/S
HeLa Kyoto [2] = assay: melting temperature (median over replicates), in situ; higher = more thermally stable
HeLa Kyoto [3] = assay: solubility change mitosis vs G1/S (difference of NP-40 vs SDS log2 ratios) (log2 ratio difference); higher = more soluble in mitosis
HeLa Kyoto [4] = assay: thermal stability score vs G1/S (z-score of summed log2 fold changes over temperatures); higher = more thermally stable than in G1/S
[5] = cell cycle stage: early G1 (4.5 h after nocodazole release)
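For melting temperature (median over replicates), in situ in this document: HeLa Kyoto cells synchronized by double thymidine or nocodazole block, proteins quantified by TMT10plex mass spectrometry, three independent biological replicates.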
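For solubility change mitosis vs G1/S (difference of NP-40 vs SDS log2 ratios) in this document: synchronized HeLa Kyoto cells (double thymidine block for G1/S, nocodazole release for mitosis), protein amounts in NP-40 versus SDS lysates quantified by mass spectrometry, three biological replicates.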
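For solubility in G1/S (NP-40 vs SDS abundance) in this document: HeLa Kyoto cells arrested at G1/S by double thymidine block, proteins quantified by TMT10plex mass spectrometry in mild NP-40 versus SDS extracts, three biological replicates.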
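For thermal stability score vs G1/S (z-score of summed log2 fold changes over temperatures) in this document: synchronized HeLa Kyoto cells, proteins quantified by TMT10plex mass spectrometry, three biological replicates, mitosis taken 0.5 h after nocodazole release, G1/S directly after double thymidine block.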

| Sequence | solubility in G1/S (log2) (HeLa Kyoto [1]) | melting temperature (HeLa Kyoto [2]; cell cycle stage: G1/S) | melting temperature (HeLa Kyoto [2]; cell cycle stage: mitosis) | solubility change mitosis (log2) (HeLa Kyoto [3]) | thermal stability score (HeLa Kyoto [4]; [5]) | thermal stability score (HeLa Kyoto [4]; cell cycle stage: mitosis) |
| --- | --- | --- | --- | --- | --- | --- |
| MAGGAREVLTLQLGHFAGFVGAHWWNQQDAALGRATDSKEPPGELCPDVLYRTGRTLHGQETYTPRLILMDLKGSLSSLKEEGGLYRDKQLDAAIAWQGKLTTHKEELYPKNPYLQDFLSAEGVLSSDGVWRVKSIPNGKGSSPLPTATTPKPLIPTEASIRVWSDFLRVHLHPRSICMIQKYNHDGEAGRLEAFGQGESVLKEPKYQEELEDRLHFYVEECDYLQGFQILCDLHDGFSGVGAKAAELLQDEYSGRGIITWGLLPGPYHRGEAQRNIYRLLNTAFGLVHLTAHSSLVCPLSLGGSLGLRPEPPVSFPYLHYDATLPFHCSAILATALDTVTVPYRLCSSPVSMVHLADMLSFCGKKVVTAGAIIPFPLAPGQSLPDSLMQFGGATPWTPLSACGEPSGTRCFAQSVVLRGIDRACHTSQLTPGTPPPSALHACTTGEEILAQYLQQQQPGVMSSSHLLLTPCRVAPPYPHLFSSCSPPGMVLDGSPKGAAVESIPVFGALCSSSSLHQTLEALARDLTKLDLRRWASFMDAGVEHDDVAELLQELQSLAQCYQGGDSLVD [MSTO1] | 0.162 | 51.2 °C | 51.1 °C | -0.0764 | 0.792 | 0.318 |
| MAGGMKVAVSPAVGPGPWGSGVGGGGTVRLLLILSGCLVYGTAETDVNVVMLQESQVCEKRASQQFCYTNVLIPKWHDIWTRIQIRVNSSRLVRVTQVENEEKLKELEQFSIWNFFSSFLKEKLNDTYVNVGLYSTKTCLKVEIIEKDTKYSVIVIRRFDPKLFLVFLLGLMLFFCGDLLSRSQIFYYSTGMTVGIVASLLIIIFILSKFMPKKSPIYVILVGGWSFSLYLIQLVFKNLQEIWRCYWQYLLSYVLTVGFMSFAVCYKYGPLENERSINLLTWTLQLMGLCFMYSGIQIPHIALAIIIIALCTKNLEHPIQWLYITCRKVCKGAEKPVPPRLLTEEEYRIQGEVETRKALEELREFCNSPDCSAWKTVSRIQSPKRFADFVEGSSHLTPNEVSVHEQEYGLGSIIAQDEIYEEASSEEEDSYSRCPAITQNNFLT [NEMP1] | 0.0297 | 53.8 °C | 54.5 °C | 0.0939 | 1.73 | 6.13 |
| MAGKKVLIVYAHQEPKSFNGSLKNVAVDELSRQGCTVTVSDLYAMNLEPRATDKDITGTLSNPEVFNYGVETHEAYKQRSLASDITDEQKKVREADLVIFQFPLYWFSVPAILKGWMDRVLCQGFAFDIPGFYDSGLLQGKLALLSVTTGGTAEMYTKTGVNGDSRYFLWPLQHGTLHFCGFKVLAPQISFAPEIASEEERKGMVAAWSQRLQTIWKEEPIPCTAHWHFGQ [NQO2] | 0.396 | 59 °C | 62 °C | -0.0114 | -1.69 | -2.35 |
| MAGKQAVSASGKWLDGIRKWYYNAAGFNKLGLMRDDTIYEDEDVKEAIRRLPENLYNDRMFRIKRALDLNLKHQILPKEQWTKYEEENFYLEPYLKEVIRERKEREEWAKK [UQCRB] | -0.132 | 53.9 °C | 52.2 °C | 0.253 | -3.18 | -2.78 |
| MAGLGHPAAFGRATHAVVRALPESLGQHALRSAKGEEVDVARAERQHQLYVGVLGSKLGLQVVELPADESLPDCVFVEDVAVVCEETALITRPGAPSRRKEVDMMKEALEKLQLNIVEMKDENATLDGGDVLFTGREFFVGLSKRTNQRGAEILADTFKDYAVSTVPVADGLHLKSFCSMAGPNLIAIGSSESAQKALKIMQQMSDHRYDKLTVPDDIAANCIYLNIPNKGHVLLHRTPEEYPESAKVYEKLKDHMLIPVSMSELEKVDGLLTCCSVLINKKVDS [DDAH1] | 0.157 | 55.3 °C | 56.1 °C | 0.0143 | 0.276 | -0.764 |
| MAGPAWISKVSRLLGAFHNPKQVTRGFTGGVQTVTLIPGDGIGPEISAAVMKIFDAAKAPIQWEERNVTAIQGPGGKWMIPSEAKESMDKNKMGLKGPLKTPIAAGHPSMNLLLRKTFDLYANVRPCVSIEGYKTPYTDVNIVTIRENTEGEYSGIEHVIVDGVVQSIKLITEGASKRIAEFAFEYARNNHRSNVTAVHKANIMRMSDGLFLQKCREVAESCKDIKFNEMYLDTVCLNMVQDPSQFDVLVMPNLYGDILSDLCAGLIGGLGVTPSGNIGANGVAIFESVHGTAPDIAGKDMANPTALLLSAVMMLRHMGLFDHAARIEAACFATIKDGKSLTKDLGGNAKCSDFTEEICRRVKDLD [IDH3A] | 0.45 | 54.5 °C | 54.6 °C | -0.00106 | -0.172 | -1.18 |
| MAGPRGALLAWCRRQCEGYRGVEIRDLSSSFRDGLAFCAILHRHRPDLLDFDSLSKDNVFENNRLAFEVAEKELGIPALLDPNDMVSMSVPDCLSIMTYVSQYYNHFCSPGQAGVSPPRKGLAPCSPPSVAPTPVEPEDVAQGEELSSGSLSEQGTGQTPSSTCAACQQHVHLVQRYLADGRLYHRHCFRCRRCSSTLLPGAYENGPEEGTFVCAEHCARLGPGTRSGTRPGPFSQPKQQHQQQLAEDAKDVPGGGPSSSAPAGAEADGPKASPEARPQIPTKPRVPGKLQELASPPAGRPTPAPRKASESTTPAPPTPRPRSSLQQENLVEQAGSSSLVNGRLHELPVPKPRGTPKPSEGTPAPRKDPPWITLVQAEPKKKPAPLPPSSSPGPPSQDSRQVENGGTEEVAQPSPTASLESKPYNPFEEEEEDKEEEAPAAPSLATSPALGHPESTPKSLHPWYGITPTSSPKTKKRPAPRAPSASPLALHASRLSHSEPPSATPSPALSVESLSSESASQTAGAELLEPPAVPKSSSEPAVHAPGTPGNPVSLSTNSSLASSGELVEPRVEQMPQASPGLAPRTRGSSGPQPAKPCSGATPTPLLLVGDRSPVPSPGSSSPQLQVKSSCKENPFNRKPSPAASPATKKATKGSKPVRPPAPGHGFPLIKRKVQADQYIPEEDIHGEMDTIERRLDALEHRGVLLEEKLRGGLNEGREDDMLVDWFKLIHEKHLLVRRESELIYVFKQQNLEQRQADVEYELRCLLNKPEKDWTEEDRAREKVLMQELVTLIEQRNAIINCLDEDRQREEEEDKMLEAMIKKKEFQREAEPEGKKKGKFKTMKMLKLLGNKRDAKSKSPRDKS [MICALL1] | 0.417 | 49.4 °C | 50.5 °C | -0.0692 | -0.815 | 1.14 |
| MAGPVSLRDLLMGASAWMGSESPGGSPTEGGGSAAGGPEPPWREDEICVVGIFGKTALRLNSEKFSLVNTVCDRQVFPLFRHQDPGDPGPGIRTEAGAVGEAGGAEDPGAAAGGSVRGSGAVAEGNRTEAGSQDYSLLQAYYSQESKVLYLLLTSICDNSQLLRACRALQSGEAGGGLSLPHAEAHEFWKHQEKLQCLSLLYLFSVCHILLLVHPTCSFDITYDRVFRALDGLRQKVLPLLKTAIKDCPVGKDWKLNCRPCPPRLLFLFQLNGALKVEPPRNQDPAHPDKPKKHSPKRRLQHALEDQIYRIFRKSRVLTNQSINCLFTVPANQAFVYIVPGSQEEDPVGMLLDQLRSHCTVKDPESLLVPAPLSGPRRYQVMRQHSRQQLSFHIDSSSSSSSGQLVDFTLREFLWQHVELVLSKKGFDDSVGRNPQPSHFELPTYQKWISAASKLYEVAIDGKEEDLGSPTGELTSKILSSIKVLEGFLDIDTKFSENRCQKALPMAHSAYQSNLPHNYTMTVHKNQLAQALRVYSQHARGPAFHKYAMQLHEDCYKFWSNGHQLCEERSLTDQHCVHKFHSLPKSGEKPEADRNPPVLYHNSRARSTGACNCGRKQAPRDDPFDIKAANYDFYQLLEEKCCGKLDHINFPVFEPSTPDPAPAKNESSPAPPDSDADKLKEKEPQTQGESTSLSLALSLGQSTDSLGTYPADPQAGGDNPEVHGQVEVKTEKRPNFVDRQASTVEYLPGMLHSNCPKGLLPKFSSWSLVKLGPAKSYNFHTGLDQQGFIPGTNYLMPWDIVIRTRAEDEGDLDTNSWPAPNKAIPGKRSAVVMGRGRRRDDIARAFVGFEYEDSRGRRFMCSGPDKVMKVMGSGPKESALKALNSDMPLYILSSSQGRGLKPHYAQLMRLFVVVPDAPLQIILMPQVQPGPPPCPVFYPEKQEITLPPDGLWVLRFPYAYVTERGPCFPPKENVQLMSYKVLRGVLKAVTQ [SMG8] | 0.118 | 49.4 °C | 48.5 °C | -0.0473 | 0.364 | 0.79 |
